This passage reports Km results from patent US7402417B2, “P450 oxygenases and methods of use” (Washington State University Research Foundation, priority 2003, dated 2008).

Substrate in series [1]: C=C1CCC[C@@]2(C)CCC3=C(C)CC[C@@H](C[C@H]12)C3(C)C
As to the kind of experiment: Kinetic evaluation with Sf9 microsomes enriched in recombinant 5α-hydroxylase (radio-HPLC, Michaelis-Menten). Type of series: biochemical, Taxus cuspidata. To be noted: other: Sf9 microsomes, recombinant enzyme, 200 μM NADPH plus regenerating system; pH 7.5. How it is done:
(§1) Kinetic constants for both isomers were next evaluated (at a saturating 200 μM concentration of NADPH plus regenerating system; Shimada and Yamazai, Meth. Mol. Biol., 107:85-93, 1998). The isolated microsomes were resuspended in 50 mM Hepes, pH 7.5, containing 1 mM DTT and 5% (v/v) glycerol, and the 1 ml reactions (˜600 μg protein, 50 μM substrate dissolved in DMSO, and the requisite cofactors (e.g., NADPH plus regenerating system) were run as described previously, with the identical protocols for product analysis (Jennewein et al., Proc. Natl. Acad. Sci. USA, 98:13595-13600, 2001). DMSO was without influence on the reaction. For kinetic evaluation, following the establishment of linear reaction conditions in protein concentration and time, the response to substrate concentration was plotted by the Michaelis-Menten method (Sigmaplot 7.0) using the calibrated radio-HPLC protocol for product determination Data from three independent experiments were pooled and the line of best fit taken (R^2>0.99).

Substrate in series [2]: [H][C@]12CCC(C)=C(CC[C@]3(C)CCC=C(C)[C@@]3([H])C1)C2(C)C
The description is as above. Type of series: biochemical, Taxus cuspidata. To be noted: other: Sf9 microsomes, recombinant enzyme, 200 μM NADPH plus regenerating system; pH 7.5. The protocol:
as §1

Substrate in series [3]: C=C1CCC[C@@]2(C)CCC3=C(C)CC[C@@H](C[C@H]12)C3(C)C
Briefly: Kinetic evaluation of taxadiene isomers, average of recombinant and T. media microsomes (FIG. 4). Type of series: biochemical, Taxus. To be noted: other: average of recombinant (Sf9) and T. media microsomes; substrate 1 to 500 μM. How it is done: (§2) Taxa-4(20),11(12)-diene (◯) and taxa-4(5),11(12)-diene (●) were evaluated with microsomes from S. formgiperda cells enriched with 50 pmol recombinant taxoid 5α-hydroxylase (A), and with microsomes from T. media suspension cells containing about 50 pmol of total native cytochrome P450 (B). Substrate Concentration range was varied from 1 to 500 μM in all cases.

Substrate in series [4]: [H][C@]12CCC(C)=C(CC[C@]3(C)CCC=C(C)[C@@]3([H])C1)C2(C)C
The series is described as above. It counts as biochemical, Taxus. Particulars: other: average of recombinant (Sf9) and T. media microsomes; substrate 1 to 500 μM. The protocol:
as §2

Usually Km stands for the concentration of substrate that gives half-maximal velocity.

B1: recombinant taxoid 5α-hydroxylase (clone S1) (Taxus cuspidata) (protein)
chain: MDALYKSTVAKFNEVTQLDCSTESFSIALSAIAGILLLLLLFRSKRHSSLKLPPGKLGIPFIGESFIFLRALRSNSLEQFFDERVKKFGLVFKTSLIGHPTVVLCGPAGNRLILSNEEKLVQMSWPAQFMKLMGENSVATRRGEDHIVMRSALAGFFGPGALQSYIGKMNTEIQSHINEKWKGKDEVNVLPLVRELVFNISAILFFNIYDKQEQDRLHKLLETILVGSFALPIDLPGFGFHRALQGRAKLNKIMLSLIKKRKEDLQSGSATATQDLLSVLLTFRDDKGTPLTNDEILDNFSSLLHASYDTTTSPMALIFKLLSSNPECYQKVVQEQLEILSNKEEGEEITWKDLKAMKYTWQVAQETLRMFPPVFGTFRKAITDIQYDGYTIPKGWKLLWTTYSTHPKDLYFNEPEKFMPSRFDQEGKHVAPYTFLPFGGGQRSCVGWEFSKMEILLFVHHFVKTFSSYTPVDPDEKISGDPLPPLPSKGFSIKLFPETIVN
notes: the S1 ORF was amplified using Pfu DNA polymerase and gene-specific primers containing a BamHI site immediately upstream of the start codon; made in house; host or cells: Spodoptera frugiperda Sf9 cells (baculovirus, pFastBac1); microsomal membranes
Regarding B1, the Km in series [1] turned out to be 16 ± 3.2 µM; in series [2], 24 ± 2.5 µM.

B2: taxoid 5α-hydroxylase (Taxus cuspidata) (protein)
chain: MDALYKSTVAKFNEVTQLDCSTESFSIALSAIAGILLLLLLFRSKRHSSLKLPPGKLGIPFIGESFIFLRALRSNSLEQFFDERVKKFGLVFKTSLIGHPTVVLCGPAGNRLILSNEEKLVQMSWPAQFMKLMGENSVATRRGEDHIVMRSALAGFFGPGALQSYIGKMNTEIQSHINEKWKGKDEVNVLPLVRELVFNISAILFFNIYDKQEQDRLHKLLETILVGSFALPIDLPGFGFHRALQGRAKLNKIMLSLIKKRKEDLQSGSATATQDLLSVLLTFRDDKGTPLTNDEILDNFSSLLHASYDTTTSPMALIFKLLSSNPECYQKVVQEQLEILSNKEEGEEITWKDLKAMKYTWQVAQETLRMFPPVFGTFRKAITDIQYDGYTIPKGWKLLWTTYSTHPKDLYFNEPEKFMPSRFDQEGKHVAPYTFLPFGGGQRSCVGWEFSKMEILLFVHHFVKTFSSYTPVDPDEKISGDPLPPLPSKGFSIKLFPRP
On to B2, for which the figures for the Km in series [3] and in series [4] were 21.5 µM and 36 µM, respectively.
